Laboratory results reported in US12551573B2, “Compositions and methods for the targeting of PCSK9” (Scribe Therapeutics Inc., priority 2022, dated 2026).

B1: DOMAIN_9960 (protein, listed as Octodon degus)
chain: AVTMEDVTVTFTNEEWALLNPAQKRLYGDVMWETFRTISAIGRTWDSQQMEEEYKNYLRNLSNEEVAKCCRYTTFNQHENI
B2: DOMAIN_10277 (protein, listed as Dipodomys ordii)
chain: SNKLVSFDDVAVEFSWEEWQELDISQRTLYRDVMLETYSMLVSLGHTGPKPQLIVKLEQDEESYMREASDKNFSDVQKMKH
B3: DOMAIN_6807 (protein, listed as Xenopus laevis)
chain: LVKFEEVAVVFSEDEWNLLSDQQRGLYMEVMKENYEHLIYLGYEVPVILSLLQDGGGISSDAGSQSKSQQVAVAEGSNVNS
B4: DOMAIN_8982 (protein, listed as Mesocricetus auratus)
chain: MGAVTYDDVHINFTQEEWALLNPSQKRLYKDVMHDTYSNLTATGYSLEDHYIEEHCQSSRRCRRHLQRHKKVHIGEKPYES
B5: DOMAIN_8746 (protein, listed as Mesocricetus auratus)
chain: SQGLVTFGDVAVVFSQEEWEWLSSEQRSLYWRVMLDNYRNLASLGLCASKPDMIALLEQGKDPCVLKRKTARGLRPDLEAV
B6: DOMAIN_7813 (protein, listed as Columba livia)
chain: WQEPVTFEDVAVYLSHAEWDAMAPEQRELYCSVMLDNYQLLASLGYPGPKPDIVYRLERGEEPWGCAPQSPLSWDGPRSPS
B7: DOMAIN_8862 (protein)
chain: TLGLLSFNDVSLEFSWEEWQLLDSAQRYLYREVILENYSNLLSVGYHGTKPDLIFRLEQGEEPWILNAKMSTQNCPEVWED
modifications: Marmota monax
B8: DOMAIN_7774 (protein)
chain: PQDSVTFEEVAVSFSREEWALLTDWQKNLYKDVMRDNYEMLNSLDLAAHKPDIILRIERGQEPCVGRLQRSKARERPNHVF
modifications: Pogona vitticeps
B9: DOMAIN_9332 (protein, listed as Peromyscus maniculatus)
chain: TENAVTYDDVHVGFTWEEWALLDPSQKNLYKDVMLDTYRNLTTIGYSWEGHNIEEHFQSSRRHERHKRSDTGENSSVYTQC
B10: DOMAIN_9489 (protein, listed as Dipodomys ordii)
chain: LASISFEDLAVTFTEEEWEHLDLGQRNLYQEVMLETYQLLVSLGDQVRLAPPTPGTPLPALPAQPRLLGLPSQPLDRRGTP
B11: DOMAIN_8425 (protein, listed as Peromyscus maniculatus)
chain: HKKSMVFSDVSLDFSQEEWECLGPAQKDLYRDVMLENYSHLLSVAGLHIPKPQVISLLEQGKEPWMIGKELTRGLCSALES
B12: DOMAIN_8712 (protein, listed as Mesocricetus auratus)
chain: PADRDAVTYDDVHIGFTQEEWVLLNPSQKSLYKDVMLDTYRNLTAIGYRWQDHNIEEHCENSRRHRRKFSCTTKPYESLQN
B13: DOMAIN_8012 (protein, listed as Callipepla squamata)
chain: PSVPVTFRDVFVQFSRDEWALLDDEQKELHQSVMQSNYEVLMSLYCDLAKPEVLLQMERGEPCLPAEPDLQGAAVSLNPAA
B14: DOMAIN_8317 (protein, listed as Mus caroli)
chain: CQALVTFEDVAVTFTDDEWKRLVPVQRALYKAVMLENYESIISLGLPVPRPDLILQFKRRGEPWMRGFHGSEEKAWPESVS
B15: DOMAIN_9141 (protein, listed as Mus caroli)
chain: LNSAVTYDDVNVNFTREEWALLDSSQKSLYKDVMLETYRNLTAIGYNWEGHNIEEHCQSSRRHARTHKRTHTGEKSYECDQ
B16: DOMAIN_9541 (protein, listed as Dipodomys ordii)
chain: SQGLVTFEDVAVYFSLEEWERLNVEQRALYQEVMQGNYGILVSLGYPIPKPDLIFRLEQGEEPWVPDSPHPEEGDIVTGVY
B17: DOMAIN_8618 (protein, listed as Mesocricetus auratus)
chain: MESVSFEDVAVNFTPEEWALLNSSQKRLHRDVMQENFRNLAAIAKNQEDPTLEDDYEYLRKILPFAVQTGYRLCENQDYAE
B18: DOMAIN_8036 (protein, listed as Alligator mississippiensis)
chain: AQRWEAFEDVALYFTQKEWELLRDGDKVLYQEQMLRNYQALVSLGYQGPTPDLICRIQRGDMELWVCDDEDPKESMWSEGL
B19: DOMAIN_8492 (protein, listed as Mus musculus)
chain: RERLVSFEDVTVDFSQEEWRRLDSVQRHLYQDVMLEIYSHLLAVGYPVPSPGAIFRIKKRKEARTGEAKLPHPCWCQEVES
B20: DOMAIN_9716 (protein, listed as Mus caroli)
chain: PKVTVSFEDVSVYFTKTEWKLLDLKQRNLYKQVMLENYSHLVSVGFAFSKPNLVSQLERGEKPWIRDDRMESAARSRAGNR
B21: DOMAIN_8953 (protein, listed as Mus caroli)
chain: MNGMTYDDVHVNFTGEEWALLSPSQKRLYKDVMLETYRNLTAIGYSWEDRNIEEHFQRSRRHGRHERSHTGENPSVYTQCN
B22: DOMAIN_8424 (protein, listed as Peromyscus maniculatus)
chain: MDAVTYEDVQVSFTREEWTLLDPSQKSLYKDVMVETYRNLTAIGYKWEDQNIKKHHQCSRRHGRHERSNSAEKDYECEQCG
B23: DOMAIN_9617 (protein, listed as Mesocricetus auratus)
chain: LQDSVTFKDVAVDFSQEEWERLNPAQRSLYRTVVLENYWNLVSVGACVSKSHLISLLEHGKAPWDMRGEVTESTSQDGESV
B24: DOMAIN_9858 (protein, listed as Mesocricetus auratus)
chain: MDAVTYDDVHINFTLEEWALLNPSQKSLYKDVMLDTYRNLTAIGYSWDDHNIEEICQSSRSHRRHLQRHAKINTGEKPYGS
B25: DOMAIN_9706 (protein, listed as Octodon degus)
chain: SPVLVSFDDVFVSFTREEWQVLDNAQRALYGDVMLETYRSLVLLGQCITKPEVIFKLEQGVEPWTGGEPHNQSPPDVQEVD
B26: DOMAIN_9303 (protein)
chain: FKGPVTFKDVTVEFTKEEWKLLTPAQRTLYKDVMLENYNHLVSVGYRVSKPNLVFKLKQGKEPWVLEVEFPRRRCPEELWN
modifications: Marmota monax
B27: DOMAIN_8555 (protein, listed as Cricetulus griseus)
chain: MAFEDVAVYFSQEEWVFLDAAQRALYRHVMLENFALVDSIGLSISRPRVIIQLQRGEEPWVPNRTNTGPGRGTRRRPSLGS
B28: DOMAIN_8881 (protein, listed as Cricetulus griseus)
chain: MAFEDVAVYFSQEEWVFLDAAQRALYRHVMLENFALVDSIGLSISRPRVIIQLQRGEEPWVSNRTNTGPGRGTRRRPSLGS
B29: DOMAIN_9217 (protein, listed as Mesocricetus auratus)
chain: MAFEDVAVYFSQEEWMFLDAAQRALYRHVMLENFALVDSIGLSVSRPRVIIQLQRGEEPWVPNRTNPGPGRSTCRRPSLGS
B30: DOMAIN_7716 (protein)
chain: VAFEDVAVYFTAEEWDLLGPNQKSLYSEVMMENYENVSYLADNWKKTIAFAHSQKDFIHKLHQRTHKEDEHHTRAEPCEST
modifications: Pogona vitticeps
B31: DOMAIN_9119 (protein, listed as Mesocricetus auratus)
chain: FQNSLTFDDVAVDFTQEEWVLMDQTQRDLYREVMLENYQNLFSAGCEITKPSLISWLEEDLQIGQREDFQEWEMQDTLREQ
B32: DOMAIN_8742 (protein, listed as Peromyscus maniculatus)
chain: MGSVSFEDISLDFTWDEWQDLDSAQRTLYRDVMLENYSSLMFLGHCTTKPELIFKLEHGFGPWSLAEASIQSLPGVHKMTV
B33: DOMAIN_9329 (protein, listed as Peromyscus maniculatus)
chain: NAVTYNDVHVDFTQEEWALMDPSQRNLYKDVMVETYMNLTAIGYNWEDLEVEEHCQNSLKHGRHKRPHTTEKSCEYMGCGK
B34: DOMAIN_8340 (protein, listed as Peromyscus maniculatus)
chain: EQDAVTYEDVHVNFTHEEWALLDPSQKSLYKDVMMETYWNLTCIGYKWEDHNIEEHCQSCRRNGSRCVICHSGHNPCEHKG
B35: DOMAIN_8282 (protein, listed as Peromyscus maniculatus)
chain: FQNSLTYDDVHINFTCEEWALLDASQKRLYKDVMLETYSNLTAIGYKWEDHNIEEHCQRFRRRGRHKRSRTEERPYECKQC
B36: DOMAIN_8545 (protein, listed as Rattus norvegicus)
chain: APLPLTFEDVAIYFSEQEWQHLETWQKELYKQVMRTNYETLISLDNGLPKPELISWMELGRENFGSWGEGQKVDRGIRCSV
B37: DOMAIN_8460 (protein, listed as Peromyscus maniculatus)
chain: MNAVTYDDVHVDFTWDEWALLDPSQKNLYKNVMLETYRNLTAIGYKWEEHNINEKFQRSRRNRRHERSHTGEKSYECNQCG
B38: DOMAIN_9559 (protein, listed as Mus caroli)
chain: MGLVSFEDIAVYFNLEEWQDLDTAQRTLYRDVMLETYSSLVFLDPCIAKPKLIFNLERGFGPWSLAEASSRSLPGVHNVST

The molecules below were run on HBEGF locus. Settings: high-throughput screen of dXR repression of the HBEGF gene; change in abundance of each domain in the library before and after diphtheria toxin selection.
Assay type: cell-based, human
For B1, the “Log2 (fold change)” value was 3.4751. For B2, the “Log2 (fold change)” value was 2.8257. B3 was tested, and the “Log2 (fold change)” value was 3.1615.

Same assay, conditions: repressor domain in dXR, repression of the HBEGF gene; abundance of domain in library after vs before diphtheria toxin selection
B4 was tested, and the “Log2 (fold change)” value was 3.1585. In the case of B5, the “Log2 (fold change)” value is reported as 3.317. For B6, the “Log2 (fold change)” value was 3.4645. For B7, the “Log2 (fold change)” value was 2.3521. In the case of B8, the “Log2 (fold change)” value is reported as 3.427. With B9 the “Log2 (fold change)” value was 3.9002. In the case of B10, the “Log2 (fold change)” value is reported as 3.0215. With B11 the “Log2 (fold change)” value was 2.8391. In the case of B12, the “Log2 (fold change)” value is reported as 2.7776. For B13, the “Log2 (fold change)” value was 3.2046. B14 was tested, and the “Log2 (fold change)” value was 3.3091. B15 was tested, and the “Log2 (fold change)” value was 3.035. For B16, the “Log2 (fold change)” value was 2.8442. With B17 the “Log2 (fold change)” value was 2.6363. With B18 the “Log2 (fold change)” value was 2.3504. B19 was tested, and the “Log2 (fold change)” value was 3.3107. B20 was tested, and the “Log2 (fold change)” value was 2.9009. For B21, the “Log2 (fold change)” value was 2.5941. B22 was tested, and the “Log2 (fold change)” value was 2.7945. For B23, the “Log2 (fold change)” value was 2.4034. With B24 the “Log2 (fold change)” value was 3.0047. In the case of B25, the “Log2 (fold change)” value is reported as 2.821. With B26 the “Log2 (fold change)” value was 2.5344. In the case of B27, the “Log2 (fold change)” value is reported as 3.2852. B28 was tested, and the “Log2 (fold change)” value was 3.743. In the case of B29, the “Log2 (fold change)” value is reported as 3.8919. In the case of B30, the “Log2 (fold change)” value is reported as 3.1171. For B31, the “Log2 (fold change)” value was 2.2985. For B32, the “Log2 (fold change)” value was 2.3354. B33 was tested, and the “Log2 (fold change)” value was 4.263. B34 was tested, and the “Log2 (fold change)” value was 2.2764. With B35 the “Log2 (fold change)” value was 3.9882. In the case of B36, the “Log2 (fold change)” value is reported as 3.1044. With B37 the “Log2 (fold change)” value was 3.1352. For B38, the “Log2 (fold change)” value was 3.327.
